# Reference: patent publication US20200199213A1 (Eli Lilly, published 2020)
# B1: mouse ANGPTL3/8 complex (other)
# chain 1: SRVDPDLSSFDSAPSEPKSRFAMLDDVKILANGLLQLGHGLKDFVHKTKGQINDIFQKLNIFDQSFYDLSLRTNEIKEEEKELRRTTSTLQVKNEEVKNMSVELNSKLESLLEEKTALQHKVRALEEQLTNLILSPAGAQEHPEVTSLKSFVEQQDNSIRELLQSVEEQYKQLSQQHMQIKEIEKQLRKTGIQEPSENSLSSKSRAPRTTPPLQLNETENTEQDDLPADCSAVYNRGEHTSGVYTIKPRNSQGFNVYCDTQSGSPWTLIQHRKDGSQDFNETWENYEKGFGRLDGEFWLGLEKIYAIVQQSNYILRLELQDWKDSKHYVEYSFHLGSHETNYTLHVAEIAGNIPGALPEHTDLMFSTWNHRAKGQLYCPESYSGGWWWNDICGENNLNGKYNKPRTKSRPERRRGIYWRPQSRKLYAIKSSKMMLQPTT
# chain 2: VRPAPVAPLGGPEPAQYEELTLLFHGALQLGQALNGVYRATEARLTEAGHSLGLYDRALEFLGTEVRQGQDATQELRTSLSEIQVEEDALHLRAEATARSLGEVARAQQALRDTVRRLQVQLRGAWLGQAHQEFETLKARADKQSHLLWALTGHVQRQQREMAEQQQWLRQIQQRLHTAALPA
# Target: T1, mouse LPL (mouse, UniProt P11152 28-474)
# T1 sequence (looked up): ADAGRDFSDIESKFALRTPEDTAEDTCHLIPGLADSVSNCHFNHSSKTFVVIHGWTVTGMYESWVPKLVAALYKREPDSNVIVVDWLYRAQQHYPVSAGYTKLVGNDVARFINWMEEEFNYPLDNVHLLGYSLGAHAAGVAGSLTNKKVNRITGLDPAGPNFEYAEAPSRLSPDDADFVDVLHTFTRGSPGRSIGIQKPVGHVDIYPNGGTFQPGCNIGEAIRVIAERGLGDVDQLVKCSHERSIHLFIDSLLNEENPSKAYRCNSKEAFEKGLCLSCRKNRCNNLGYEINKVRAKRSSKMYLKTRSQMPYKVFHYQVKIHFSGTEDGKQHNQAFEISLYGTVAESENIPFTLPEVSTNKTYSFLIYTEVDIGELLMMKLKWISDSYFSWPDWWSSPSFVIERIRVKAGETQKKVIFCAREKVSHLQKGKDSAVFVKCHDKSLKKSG
# Experiment: cell-based or functional assay
binder,measurement,value
B1,IC80 concentration (inhibition of LPL activity),130 pM
